Assay results taken from patent publication US20230257470A1 (published 2023).
Numbering of substitutions follows the chain as printed.

T1: human FcγRIIa type H (human, UniProt P12318 36-217)
T1 construct: also called FcyRIIaH; FcγRIIa(H)
T1 sequence: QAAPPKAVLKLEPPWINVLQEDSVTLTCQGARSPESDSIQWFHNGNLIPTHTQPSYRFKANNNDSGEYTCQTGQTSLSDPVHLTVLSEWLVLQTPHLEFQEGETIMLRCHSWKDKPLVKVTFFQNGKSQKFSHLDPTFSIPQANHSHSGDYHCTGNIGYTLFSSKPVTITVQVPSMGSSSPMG

T2: human FcγRIIb (human, UniProt P31994 43-217, limits assumed)
T2 construct: also called FcyRIfb; FcγIIB
T2 sequence: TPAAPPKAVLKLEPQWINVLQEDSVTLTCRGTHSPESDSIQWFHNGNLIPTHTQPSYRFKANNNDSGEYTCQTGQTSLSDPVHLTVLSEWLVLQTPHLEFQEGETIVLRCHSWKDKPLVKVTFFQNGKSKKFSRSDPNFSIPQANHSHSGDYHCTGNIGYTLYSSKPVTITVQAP

T3: human FcγRIIa type R (human, UniProt P12318 36-217)
T3 construct: also called FcgRIIaR; FcγRIIa(R)
T3 chain: T1 sequence with H133R

T4: human FcγRIIa type H (human, UniProt P12318 36-217)
T4 construct: also called FcgRIIaH; FcγRIIa(H)
T4 sequence: T1 sequence

T5: human FcγRIIb (human, UniProt P31994 43-217, limits assumed)
T5 construct: also called FcgRIIb; FcγIIB
T5 sequence: T2 sequence

B1: IL6R-BP112/IL6R-L (antibody, human IgG1, name in EU numbering)
heavy: QVQLQESGPGLVKPSETLSLTCAVSGHSISHDHAWSWVRQPPGEGLEWIGFISYSGITNYNPSLQGRVTISRDNSKNTLYLQMNSLRAEDTAVYYCARSLARTTAMDYWGEGTLVTVSSASTKGPSVFPLAPSSKSTSGGTAALGCLVKDYFPEPVTVSWNSGALTSGVHTFPAVLQSSGLYSLSSVVTVPSSSLGTQTYICNVNHKPSNTKVDKKVEPKSCDKTHTCPPCPAPELLGGDSVFLFPPKPKDTLMISRTPEVTCVVVDVSHEDGEVKFNWYVDGVEVHNAKTKPREEQYNSTYRVVSVLTVLHQDWLNGKEYKCKVSNKALPAPIEKTISKAKGQPREPQVYTLPPSRDELTKNQVSLTCLVKGFYPSDIAVEWESNGQPENNYKTTPPVLDSDGSFFLYSKLTVDKSRWQQGNVFSCSVMHEALHNHYTQESLSLSP
light: DIQMTQSPSSLSASVGDRVTITCRASQDISSYLNWYQQKPGKAPKLLIYYTSRLHSGVPSRFSGSGSGTDFTFTISSLQPEDIATYYCQQGNTLPYTFGQGTKVEIK
B2: IL6R-BP126/IL6R-L (antibody, human IgG1, name in EU numbering)
heavy: B1 heavy with G273P, K328L
light: B1 light
B3: IL6R-BP120/IL6R-L (antibody, human IgG1, name in EU numbering)
heavy: B1 heavy with G273P, K328E
light: B1 light
B4: IL6R-BP179/IL6R-L (antibody, human IgG1, name in EU numbering)
heavy: B1 heavy with G239D, K328A, A332K
light: B1 light
notes: the list runs over r45 and r46; copies: 2 + 2
B5: IL6R-BP147/IL6R-L (antibody, human IgG1, name in EU numbering)
heavy: B1 heavy with L236Y, G239D, G273P, K328A, A332K
light: B1 light
notes: the list runs over r28 and r29; copies: 2 + 2
B6: IL6R-BP129/IL6R-L (antibody, human IgG1, name in EU numbering)
heavy: B1 heavy with E235D, G273P, Y298D, A332K
light: B1 light
notes: copies: 2 + 2
B7: IL6R-BP144/IL6R-L (antibody, human IgG1, name in EU numbering)
heavy: B1 heavy with G239D, G273P, K328A
light: B1 light
notes: copies: 2 + 2
B8: IL6R-BP133/IL6R-L (antibody, human IgG1, name in EU numbering)
heavy: B1 heavy with E235D, L236Y, G273P, A332K
light: B1 light
notes: copies: 2 + 2
B9: IL6R-BP183/IL6R-L (antibody, human IgG1, name in EU numbering)
heavy: B1 heavy with E235D, L236Y, K328A, A332K
light: B1 light
notes: the list runs over r52 and r53; copies: 2 + 2
B10: IL6R-BP143/IL6R-L (antibody, human IgG1, name in EU numbering)
heavy: B1 heavy with L236Y, G273P, K328A
light: B1 light
notes: copies: 2 + 2
B11: IL6R-BP089/IL6R-L (antibody, human IgG1, name in EU numbering)
heavy: B1 heavy with L236Y, G273P, K328A, A332K
light: B1 light
notes: copies: 2 + 2
B12: IL6R-BP145/IL6R-L (antibody, human IgG1, name in EU numbering)
heavy: B1 heavy with L236Y, G239D, G273P
light: B1 light
notes: copies: 2 + 2
B13: IL6R-G1d/IL6R-L (antibody, human IgG1)
heavy: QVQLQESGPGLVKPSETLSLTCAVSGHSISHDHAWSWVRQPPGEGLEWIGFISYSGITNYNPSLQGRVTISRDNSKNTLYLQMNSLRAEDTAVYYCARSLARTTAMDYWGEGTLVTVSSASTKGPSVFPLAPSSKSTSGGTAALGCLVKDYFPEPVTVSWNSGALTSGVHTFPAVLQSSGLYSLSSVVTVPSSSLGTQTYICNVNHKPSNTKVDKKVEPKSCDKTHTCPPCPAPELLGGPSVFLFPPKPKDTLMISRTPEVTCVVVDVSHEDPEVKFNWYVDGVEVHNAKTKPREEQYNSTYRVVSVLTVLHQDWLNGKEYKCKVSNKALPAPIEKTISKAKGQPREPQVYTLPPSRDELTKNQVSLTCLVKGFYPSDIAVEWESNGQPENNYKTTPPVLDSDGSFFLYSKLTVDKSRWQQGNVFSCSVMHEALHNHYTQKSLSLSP
light: B1 light
notes: Anti-human IL-6 receptor human IgG1 with G1d constant region (C-terminal Gly and Lys removed); template used for producing IL6R-B3; also called IgG1; copies: 2 + 2
B14: IL6R-BP177/IL6R-L (antibody, human IgG1, name in EU numbering)
heavy: B1 heavy with E235D, L236Y, G239D, K328D, A332K
light: B1 light
notes: the list runs over r41 and r42; copies: 2 + 2
B15: IL6R-BP149/IL6R-L (antibody, human IgG1, name in EU numbering)
heavy: B1 heavy with E235D, L236Y, G239D, G273P, Y298D, K328A, A332K
light: B1 light
notes: the list runs over r32 and r33; copies: 2 + 2
B16: IL6R-BP150/IL6R-L (antibody, human IgG1, name in EU numbering)
heavy: B1 heavy with L236Y, G239D, G273P, K328A, A332R
light: B1 light
notes: the list runs over r34 and r35; copies: 2 + 2
B17: IL6R-BP180/IL6R-L (antibody, human IgG1, name in EU numbering)
heavy: B1 heavy with G239D, A332K
light: B1 light
notes: copies: 2 + 2

Target: T6, human FcγRIa (human, UniProt P12314 16-292, limits assumed)
T6 construct: also called FcyRIa; CD64
Test: SPR (Biacore), FcγR over captured antibody; binding amount relative to IL6R-BF648/IL6R-L x100
T6 sequence (P12314 16-292 limits assumed): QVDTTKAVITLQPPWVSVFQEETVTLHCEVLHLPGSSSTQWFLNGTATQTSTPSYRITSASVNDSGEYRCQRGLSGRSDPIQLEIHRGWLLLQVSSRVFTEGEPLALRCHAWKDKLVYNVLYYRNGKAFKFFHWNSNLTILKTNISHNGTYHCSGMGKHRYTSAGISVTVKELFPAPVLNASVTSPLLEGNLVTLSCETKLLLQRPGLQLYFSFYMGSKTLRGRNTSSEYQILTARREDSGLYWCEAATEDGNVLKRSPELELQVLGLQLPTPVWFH

Row | Binder | relative binding
1 | B1 | 119 % of IL6R-BF648/IL6R-L
2 | B2 | 113 % of IL6R-BF648/IL6R-L
3 | B3 | 125 % of IL6R-BF648/IL6R-L

Target: T1, human FcγRIIa type H
Test: as above

Row | Binder | relative binding
4 | B1 | 113 % of IL6R-BF648/IL6R-L
5 | B2 | 132 % of IL6R-BF648/IL6R-L

Target: T2, human FcγRIIb
Test: as above

Row | Binder | relative binding
6 | B1 | 157 % of IL6R-BF648/IL6R-L
7 | B3 | 114 % of IL6R-BF648/IL6R-L

Target: T7, human FcγRIa (human, UniProt P12314 16-292, limits assumed)
T7 construct: also called FcgRIa; FcγRI (CD64)
Test: SPR (Biacore), FcγR over captured antibody; binding amount divided by that of IL6R-BF648/IL6R-L x 100
T7 sequence (P12314 16-292 limits assumed): as above
Description: (§1) According to the following method, relative binding activities were calculated for the results of analyzing interactions with the respective FcγRs.

Row | Binder | relative binding activity
8 | B4 | 39 relative (IL6R-BF648/IL6R-L = 100)
9 | B5 | 24 relative (IL6R-BF648/IL6R-L = 100)
10 | B6 | 68 relative (IL6R-BF648/IL6R-L = 100)
11 | B7 | 64 relative (IL6R-BF648/IL6R-L = 100)
12 | B8 | 41 relative (IL6R-BF648/IL6R-L = 100)
13 | B9 | 83 relative (IL6R-BF648/IL6R-L = 100)
14 | B10 | 86 relative (IL6R-BF648/IL6R-L = 100)
15 | B11 | 43 relative (IL6R-BF648/IL6R-L = 100)
16 | B12 | 41 relative (IL6R-BF648/IL6R-L = 100)
17 | B13 | 140 relative (IL6R-BF648/IL6R-L = 100)
18 | B14 | 57 relative (IL6R-BF648/IL6R-L = 100)
19 | B15 | 29 relative (IL6R-BF648/IL6R-L = 100)
20 | B16 | 30 relative (IL6R-BF648/IL6R-L = 100)
21 | B17 | 29 relative (IL6R-BF648/IL6R-L = 100)

Target: T3, human FcγRIIa type R
Test: as above
Description: as §1

Row | Binder | relative binding activity
22 | B4 | 570 relative (IL6R-BF648/IL6R-L = 100)
23 | B5 | 650 relative (IL6R-BF648/IL6R-L = 100)
24 | B6 | 111 relative (IL6R-BF648/IL6R-L = 100)
25 | B7 | 204 relative (IL6R-BF648/IL6R-L = 100)
26 | B8 | 174 relative (IL6R-BF648/IL6R-L = 100)
27 | B9 | 423 relative (IL6R-BF648/IL6R-L = 100)
28 | B10 | 238 relative (IL6R-BF648/IL6R-L = 100)
29 | B11 | 222 relative (IL6R-BF648/IL6R-L = 100)
30 | B12 | 350 relative (IL6R-BF648/IL6R-L = 100)
31 | B13 | 650 relative (IL6R-BF648/IL6R-L = 100)
32 | B14 | 691 relative (IL6R-BF648/IL6R-L = 100)
33 | B15 | 539 relative (IL6R-BF648/IL6R-L = 100)
34 | B16 | 757 relative (IL6R-BF648/IL6R-L = 100)
35 | B17 | 602 relative (IL6R-BF648/IL6R-L = 100)

Target: T4, human FcγRIIa type H
Test: as above
Description: as §1

Row | Binder | relative binding activity
36 | B4 | 226 relative (IL6R-BF648/IL6R-L = 100)
37 | B5 | 582 relative (IL6R-BF648/IL6R-L = 100)
38 | B6 | 98 relative (IL6R-BF648/IL6R-L = 100)
39 | B7 | 108 relative (IL6R-BF648/IL6R-L = 100)
40 | B8 | 151 relative (IL6R-BF648/IL6R-L = 100)
41 | B9 | 191 relative (IL6R-BF648/IL6R-L = 100)
42 | B10 | 143 relative (IL6R-BF648/IL6R-L = 100)
43 | B11 | 186 relative (IL6R-BF648/IL6R-L = 100)
44 | B12 | 224 relative (IL6R-BF648/IL6R-L = 100)
45 | B13 | 1670 relative (IL6R-BF648/IL6R-L = 100)
46 | B14 | 409 relative (IL6R-BF648/IL6R-L = 100)
47 | B15 | 401 relative (IL6R-BF648/IL6R-L = 100)
48 | B16 | 770 relative (IL6R-BF648/IL6R-L = 100)
49 | B17 | 203 relative (IL6R-BF648/IL6R-L = 100)

Target: T5, human FcγRIIb
Test: as above
Description: as §1

Row | Binder | relative binding activity
50 | B4 | 177 relative (IL6R-BF648/IL6R-L = 100)
51 | B5 | 177 relative (IL6R-BF648/IL6R-L = 100)
52 | B6 | 138 relative (IL6R-BF648/IL6R-L = 100)
53 | B7 | 121 relative (IL6R-BF648/IL6R-L = 100)
54 | B8 | 137 relative (IL6R-BF648/IL6R-L = 100)
55 | B9 | 164 relative (IL6R-BF648/IL6R-L = 100)
56 | B10 | 133 relative (IL6R-BF648/IL6R-L = 100)
57 | B11 | 147 relative (IL6R-BF648/IL6R-L = 100)
58 | B12 | 152 relative (IL6R-BF648/IL6R-L = 100)
59 | B13 | 62 relative (IL6R-BF648/IL6R-L = 100)
60 | B14 | 177 relative (IL6R-BF648/IL6R-L = 100)
61 | B15 | 173 relative (IL6R-BF648/IL6R-L = 100)
62 | B16 | 183 relative (IL6R-BF648/IL6R-L = 100)
63 | B17 | 179 relative (IL6R-BF648/IL6R-L = 100)

Target: T8, human FcγRIIIa type V (human, UniProt P08637 17-208, limits assumed)
T8 construct: also called FcgRIIIaV; FcγRIIIa(V)
Test: as above
Description: as §1

T8 sequence (P08637 other isoform, or with tags, fused parts or gaps limits assumed): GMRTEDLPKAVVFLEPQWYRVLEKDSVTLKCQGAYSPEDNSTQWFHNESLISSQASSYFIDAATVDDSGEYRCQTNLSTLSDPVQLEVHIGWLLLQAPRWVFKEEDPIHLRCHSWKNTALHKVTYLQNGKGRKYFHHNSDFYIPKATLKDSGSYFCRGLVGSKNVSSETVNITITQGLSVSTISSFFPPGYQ

Row | Binder | relative binding activity
64 | B4 | 125 relative (IL6R-BF648/IL6R-L = 100)
65 | B5 | 209 relative (IL6R-BF648/IL6R-L = 100)
66 | B6 | 95 relative (IL6R-BF648/IL6R-L = 100)
67 | B7 | 128 relative (IL6R-BF648/IL6R-L = 100)
68 | B8 | 114 relative (IL6R-BF648/IL6R-L = 100)
69 | B9 | 113 relative (IL6R-BF648/IL6R-L = 100)
70 | B10 | 114 relative (IL6R-BF648/IL6R-L = 100)
71 | B11 | 136 relative (IL6R-BF648/IL6R-L = 100)
72 | B12 | 153 relative (IL6R-BF648/IL6R-L = 100)
73 | B13 | 3350 relative (IL6R-BF648/IL6R-L = 100)
74 | B14 | 186 relative (IL6R-BF648/IL6R-L = 100)
75 | B15 | 186 relative (IL6R-BF648/IL6R-L = 100)
76 | B16 | 204 relative (IL6R-BF648/IL6R-L = 100)
77 | B17 | 100 relative (IL6R-BF648/IL6R-L = 100)
